# In IntAct's records for PubMed 27153538:
# B1: TP53-binding protein 1 (Homo sapiens), Q12888 (parent)
# chain: MDPTGSQLDSDFSQQDTPCLIIEDSQPESQVLEDDSGSHFSMLSRHLPNLQTHKENPVLDVVSNPEQTAGEERGDGNSGFNEHLKENKVADPVDSSNLDTCGSISQVIEQLPQPNRTSSVLGMSVESAPAVEEEKGEELEQKEKEKEEDTSGNTTHSLGAEDTASSQLGFGVLELSQSQDVEENTVPYEVDKEQLQSVTTNSGYTRLSDVDANTAIKHEEQSNEDIPIAEQSSKDIPVTAQPSKDVHVVKEQNPPPARSEDMPFSPKASVAAMEAKEQLSAQELMESGLQIQKSPEPEVLSTQEDLFDQSNKTVSSDGCSTPSREEGGCSLASTPATTLHLLQLSGQRSLVQDSLSTNSSDLVAPSPDAFRSTPFIVPSSPTEQEGRQDKPMDTSVLSEEGGEPFQKKLQSGEPVELENPPLLPESTVSPQASTPISQSTPVFPPGSLPIPSQPQFSHDIFIPSPSLEEQSNDGKKDGDMHSSSLTVECSKTSEIEPKNSPEDLGLSLTGDSCKLMLSTSEYSQSPKMESLSSHRIDEDGENTQIEDTEPMSPVLNSKFVPAENDSILMNPAQDGEVQLSQNDDKTKGDDTDTRDDISILATGCKGREETVAEDVCIDLTCDSGSQAVPSPATRSEALSSVLDQEEAMEIKEHHPEEGSSGSEVEEIPETPCESQGEELKEENMESVPLHLSLTETQSQGLCLQKEMPKKECSEAMEVETSVISIDSPQKLAILDQELEHKEQEAWEEATSEDSSVVIVDVKEPSPRVDVSCEPLEGVEKCSDSQSWEDIAPEIEPCAENRLDTKEEKSVEYEGDLKSGTAETEPVEQDSSQPSLPLVRADDPLRLDQELQQPQTQEKTSNSLTEDSKMANAKQLSSDAEAQKLGKPSAHASQSFCESSSETPFHFTLPKEGDIIPPLTGATPPLIGHLKLEPKRHSTPIGISNYPESTIATSDVMSESMVETHDPILGSGKGDSGAAPDVDDKLCLRMKLVSPETEASEESLQFNLEKPATGERKNGSTAVAESVASPQKTMSVLSCICEARQENEARSEDPPTTPIRGNLLHFPSSQGEEEKEKLEGDHTIRQSQQPMKPISPVKDPVSPASQKMVIQGPSSPQGEAMVTDVLEDQKEGRSTNKENPSKALIERPSQNNIGIQTMECSLRVPETVSAATQTIKNVCEQGTSTVDQNFGKQDATVQTERGSGEKPVSAPGDDTESLHSQGEEEFDMPQPPHGHVLHRHMRTIREVRTLVTRVITDVYYVDGTEVERKVTEETEEPIVECQECETEVSPSQTGGSSGDLGDISSFSSKASSLHRTSSGTSLSAMHSSGSSGKGAGPLRGKTSGTEPADFALPSSRGGPGKLSPRKGVSQTGTPVCEEDGDAGLGIRQGGKAPVTPRGRGRRGRPPSRTTGTRETAVPGPLGIEDISPNLSPDDKSFSRVVPRVPDSTRRTDVGAGALRRSDSPEIPFQAAAGPSDGLDASSPGNSFVGLRVVAKWSSNGYFYSGKITRDVGAGKYKLLFDDGYECDVLGKDILLCDPIPLDTEVTALSEDEYFSAGVVKGHRKESGELYYSIEKEGQRKWYKRMAVILSLEQGNRLREQYGLGPYEAVTPLTKAADISLDNLVEGKRKRRSNVSSPATPTASSSSSTTPTRKITESPRASMGVLSGKRKLITSEEERSPAKRGRKSATVKPGAVGAGEFVSPCESGDNTGEPSALEEQRGPLPLNKTLFLGYAFLLTMATTSDKLASRSKLPDGPTGSSEEEEEFLEIPPFNKQYTESQLRAGAGYILEDFNEAQCNTAYQCLLIADQHCRTRKYFLCLASGIPCVSHVWVHDSCHANQLQNYRNYLLPAGYSLEEQRILDWQPRENPFQNLKVLLVSDQQQNFLELWSEILMTGGAASVKQHHSSAHNKDIALGVFDVVVTDPSCPASVLKCAEALQLPVVSQEWVIQCLIVGERIGFKQHPKYKHDYVSH
# Variants of: B1
# Settings: with h4_human H4C16, P62805
row,Variant,effect of a mutation on the interaction
1,D1521R,disrupting interaction strength
